The text below walks through data of patent publication US20190359710A1 (FRIEDRICH ALEXANDER UNIVERSIT T ERLANGEN N RNBERG, published 2019).

In experiment [1] the target is T1, human CD16 (human, UniProt P08637 17-254).
T1 construct: whole, on cells; also called hu CD16; CHO16-10 CD16+
Briefly: cytofluorimetry on CHO cells stably transfected with CD16.

Experiment [2] addresses T1, human CD16. Briefly: calibrated flow cytometry on CHO16-10 cells (CD16 single-positive). The procedure:
(§1) The remaining triplebodies (a), (b), (d) and (f) from the above list were further analyzed. Equilibrium binding constants (KD) of each of the component scFvs carried in these triplebodies were determined by calibrated flow cytometry (Table 5). Thermo-stability in human serum was evaluated by incubation in human serum at 37° C. in vitro, and the binding ability to CD33, CD16 and CD123 on antigen single-positive mammalian cells was measured by FACS-analysis. Residual binding capacity (in % of the starting value) was evaluated after incubation for various lengths of time (Table 5).
(§2) In the top 2 rows the variant humanized according to AHo was used, in the bottom 2 rows the variant humanized according to RK was used. U937 cells are single-positive for CD33; CHO16-10 cells are single-positive (stably transfected) variants for hu CD16; […] are a stably transfected variant of HEK293, single-positive for CD123; MOLM13 cells are a stable, human AML-derived cell line double-positive for CD123 and CD33. n = number of independent experiments performed. Numbers in the table are arithmetic means from n separate measurements ± the Standard Error of the Mean (SEM).

The target in experiment [3] is T2, human CD123 (alpha chain of the interleukin-3 receptor) (human, UniProt P26951 19-378).
T2 construct: also called 239 CD123+; HEK293.123
Briefly: affinity for CD123, method not named in the table (antigen on mammalian cells by the text).

The target in experiment [4] is T3, human CD33 (human, UniProt P20138 18-364).
T3 construct: whole, on cells; also called U937 CD33+
Kind of experiment: calibrated flow cytometry on U937 cells (CD33 single-positive). The procedure:
as §1, §2

The target of experiment [5] is T2, human CD123 (alpha chain of the …). Kind of experiment: calibrated flow cytometry on CD123-transfected HEK293 cells. The procedure:
as §1, §2

Experiment [6] addresses T3, human CD33. Briefly: affinity for CD33, method not named in the table (antigen on mammalian cells by the text).
The target of experiment [7] is T1, human CD16. Briefly: affinity for CD16, method not named in the table (antigen on mammalian cells by the text).

T2 sequence (P26951 19-378 limits assumed): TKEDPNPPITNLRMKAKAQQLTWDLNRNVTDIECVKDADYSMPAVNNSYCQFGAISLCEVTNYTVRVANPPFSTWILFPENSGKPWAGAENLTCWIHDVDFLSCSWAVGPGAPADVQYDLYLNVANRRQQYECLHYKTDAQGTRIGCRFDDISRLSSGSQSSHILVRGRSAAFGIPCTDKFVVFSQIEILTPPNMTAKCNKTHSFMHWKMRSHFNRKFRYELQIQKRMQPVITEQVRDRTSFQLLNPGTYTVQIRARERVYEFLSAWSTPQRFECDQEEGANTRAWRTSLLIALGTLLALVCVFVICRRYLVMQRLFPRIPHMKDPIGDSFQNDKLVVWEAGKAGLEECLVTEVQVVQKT
T1 sequence (P08637 17-254): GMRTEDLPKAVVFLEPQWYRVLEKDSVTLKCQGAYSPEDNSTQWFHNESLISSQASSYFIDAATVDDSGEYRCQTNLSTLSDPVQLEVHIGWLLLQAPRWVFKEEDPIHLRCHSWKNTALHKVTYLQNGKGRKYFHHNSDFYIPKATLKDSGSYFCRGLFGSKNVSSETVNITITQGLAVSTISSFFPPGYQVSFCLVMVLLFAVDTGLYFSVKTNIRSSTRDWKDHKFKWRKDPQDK
T3 sequence (P20138 18-364): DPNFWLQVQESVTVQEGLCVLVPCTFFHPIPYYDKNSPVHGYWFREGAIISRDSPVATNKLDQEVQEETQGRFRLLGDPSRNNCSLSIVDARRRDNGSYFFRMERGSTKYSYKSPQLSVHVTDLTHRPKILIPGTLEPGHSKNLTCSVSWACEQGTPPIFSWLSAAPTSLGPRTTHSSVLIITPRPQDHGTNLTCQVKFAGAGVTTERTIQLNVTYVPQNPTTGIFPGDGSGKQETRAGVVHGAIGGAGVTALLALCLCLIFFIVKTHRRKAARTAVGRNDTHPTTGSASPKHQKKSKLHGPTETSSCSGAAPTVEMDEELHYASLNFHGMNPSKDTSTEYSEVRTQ

B1: humanized CD16-specific scFv variant 1/3 (Vk1 / VH3 frameworks, LH order, (Gly4Ser)4x linker) (scFv)
chain: DIVLTQSPSSLSASVGDRVTITCKASQSVDFDGDSFMNWYQQKPGKAPKLLIYTTSNLESGVPSRFSASGSGTDFTLTISSLQPEDFATYYCQQSNEDPYTFGQGTKVEIKRGGGGSGGGGSGGGGSGGGGSEVQLVESGGGDVQPGGSLRLSCAFSGFSLRTSGMGVGWIRQAPGKGLEWVAHIWWDDDKRYNPSVKGRFTISKDTSSNTVYLQMNSLRAEDTAVYYCAQINPAWFAYWGQGTLVTVSS
B1 displayed a Kd in the experiment with human CD16 [1] of 12.7 nM.

B2: triplebody hu[33-ds16-123] (other)
chain: EVQLVESGGGLIQPGGSLRLSCAASGFPLTSYGVSWVRQPPGKGLEWLGVIWGDGSTNYHSALISRFTISRDNSKNTLYLQMNSLRAEDTAVYYCARDTYYPYYAMDYWGQGTTVTVSSGGGGSGGGGSGGGGSDIQMTQSPSSLSASVGDRVTITCKASQDVSTAVAWYQQKPGKAPKLLIYSASYRYTGVPSRFSGSGSGTDFTLTISSLQPEDFATYYCQQHYSTPLTFGQGTKLEIKRGGGGSGGGGSGGGGSGGGGSDIVLTQSPSSLSASVGDRVTITCKASQSVDFDGDSFMNWYQQKPGKAPKLLIYTTSNLESGVPSRFSASGSGTDFTLTISSLQPEDFATYYCQQSNEDPYTFGCGTKVEIKRGGGGSGGGGSGGGGSGGGGSEVQLVESGGGDVQPGGSLRLSCAFSGFSLRTSGMGVGWIRQAPGKCLEWVAHIWWDDDKRYNPSVKGRFTISKDTSSNTVYLQMNSLRAEDTAVYYCAQINPAWFAYWGQGTLVTVSSGGGGSGGGGSGGGGSGGGGSEVQLVESGGGLVQPGGSLRLSCAASGFTFTDYYMSWVRQAPGKGLEWLALIRSKADGYTTEYSASVKGRFTISRDDSKNSLYLQMNSLKTEDTAVYYCARDAAYYSYYSPEGAMDYWGQGTSVTVSSGGGGSGGGGSGGGGSDIQMTQSPSSLSASVGDRVTITCKASQNVDSAVAWYQQKPGKAPKALIYSASYRYSGVPSRFSGSGSGTDFTLTISSLQPEDFATYYCQQYYSTPWTFGQGTKVEIKR
Regarding B2, the Kd was 11 nM in the experiment with human CD16 [2]; 13 nM in experiment [3]; 49 nM in the experiment with human CD33 [4]; 11 nM in experiment [5]; 53 nM with human CD33 [6]; 13 nM in the experiment with human CD16 [7].

B3: candidate triplebody hu[33-ds16-ds123RK] before polishing of the sequence (other, not shown: small tags and cut ends)
chain: EVQLVESGGGLIQPGGSLRLSCAASGFPLTSYGVSWVRQPPGKGLEWLGVIWGDGSTNYHSALISRFTISRDNSKNTLYLQMNSLRAEDTAVYYCARDTYYPYYAMDYWGQGTTVTVSSGGGGSGGGGSGGGGSDIQMTQSPSSLSASVGDRVTITCKASQDVSTAVAWYQQKPGKAPKLLIYSASYRYTGVPSRFSGSGSGTDFTLTISSLQPEDFATYYCQQHYSTPLTFGQGTKLEIKRGGGGSGGGGSGGGGSGGGGSDIVLTQSPSSLSASVGDRVTITCKASQSVDFDGDSFMNWYQQKPGKAPKLLIYTTSNLESGVPSRFSASGSGTDFTLTISSLQPEDFATYYCQQSNEDPYTFGCGTKVEIKRGGGGSGGGGSGGGGSGGGGSEVQLVESGGGDVQPGGSLRLSCAFSGFSLRTSGMGVGWIRQAPGKCLEWVAHIWWDDDKRYNPSVKGRFTISKDTSSNTVYLQMNSLRAEDTAVYYCAQINPAWFAYWGQGTLVTVSSGGGGSGGGGSGGGGSGGGGSEVQLVESGGGLVQPGGSLRLSCAASGFTFTDYYMSWVRQAPGKCLEWLALIRSKADGYTTEYSASVKGRFTISRDDSKNSLYLQMNSLKTEDTAVYYCARDAAYYSYYSPEGAMDYWGQGTSVTVSSGGGGSGGGGSGGGGSDIQMTQSPSSLSASVGDRVTITCKASQNVDSAVAWYQQKPGKAPKALIYSASYRYSGVPSRFSGSGSGTDFTLTISSLQPEDFATYYCQQYYSTPWTFGCGTKVEIKR
notes: the list of removed pieces may not be complete; also called variant (f)
For the molecule B3, the Kd with human CD16 [2] came to 18 nM; in the experiment with human CD33 [4] it was 31 nM; in experiment [5], 9 nM.

B4: single chain triplebody SPM-2, hu(33-ds16-ds123RK) (other)
chain: EVQLVESGGGLIQPGGSLRLSCAASGFPLTSYGVSWVRQPPGKGLEWLGVIWGDGSTNYHSALISRFTISRDNSKNTLYLQMNSLRAEDTAVYYCARDTYYPYYAMDYWGQGTTVTVSSGGGGSGGGGSGGGGSDIQMTQSPSSLSASVGDRVTITCKASQDVSTAVAWYQQKPGKAPKLLIYSASYRYTGVPSRFSGSGSGTDFTLTISSLQPEDFATYYCQQHYSTPLTFGQGTKLEIKRGGGGSGGGGSGGGGSGGGGSDIVLTQSPSSLSASVGDRVTITCKASQSVDFDGDSFMNWYQQKPGKAPKLLIYTTSNLESGVPSRFSASGSGTDFTLTISSLQPEDFATYYCQQSNEDPYTFGCGTKVEIKRGGGGSGGGGSGGGGSGGGGSEVQLVESGGGDVQPGGSLRLSCAFSGFSLRTSGMGVGWIRQAPGKCLEWVAHIWWDDDKRYNPSVKGRFTISKDTSSNTVYLQMNSLRAEDTAVYYCAQINPAWFAYWGQGTLVTVSSGGGGSGGGGSGGGGSGGGGSEVQLVESGGGLVQPGGSLRLSCAASGFTFTDYYMSWVRQAPGKCLEWLALIRSKADGYTTEYSASVKGRFTISRDDSKNSLYLQMNSLKTEDTAVYYCARDAAYYSYYSPEGAMDYWGQGTSVTVSSGGGGSGGGGSGGGGSDIQMTQSPSSLSASVGDRVTITCKASQNVDSAVAWYQQKPGKAPKALIYSASYRYSGVPSRFSGSGSGTDFTLTISSLQPEDFATYYCQQYYSTPWTFGCGTKVEIKRGGGGSHHHHHH
notes: Trispecific single-chain triplebody made of three scFvs in tandem, produced in HEK293 F cells; also called 33-ds16-ds123 (SPM-2)
In the case of B4, the Kd in experiment [3] is 32 nM; with human CD33 [6] it was 23 nM; with human CD16 [7], 35 nM.
